Laboratory results published in patent publication US20240301063A1 (SHANDONG NEW TIME PHARMACEUTICAL, published 2024).

What was measured:
[1] = molecular target: T1, human BCMA on BCMA positive cells (human, UniProt Q02223 1-184); assay: cell-based or functional assay
T1 sequence (looked up): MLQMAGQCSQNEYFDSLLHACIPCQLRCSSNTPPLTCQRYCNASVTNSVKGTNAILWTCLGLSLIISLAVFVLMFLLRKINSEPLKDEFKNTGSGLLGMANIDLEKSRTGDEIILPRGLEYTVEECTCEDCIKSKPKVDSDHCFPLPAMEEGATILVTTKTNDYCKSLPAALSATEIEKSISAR

[2] = molecular target: T2, cynomolgus monkey CD3 on cynomolgus monkey T cells (cynomolgus monkey, UniProt Q95LI5 22-198; Q95LI8 22-171; Q95LI7 23-181); assay: flow cytometry on cynomolgus monkey T cells
T2 construct: Native CD3 on T cells
T2 sequence (Q95LI5 22-198 limits assumed, chain 1 of 3): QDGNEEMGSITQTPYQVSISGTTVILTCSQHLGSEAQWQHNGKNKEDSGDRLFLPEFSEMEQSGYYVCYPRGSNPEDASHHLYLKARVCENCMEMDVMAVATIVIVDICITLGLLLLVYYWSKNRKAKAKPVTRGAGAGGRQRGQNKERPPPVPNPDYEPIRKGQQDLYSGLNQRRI
T2 sequence (Q95LI8 22-171 limits assumed, chain 2 of 3): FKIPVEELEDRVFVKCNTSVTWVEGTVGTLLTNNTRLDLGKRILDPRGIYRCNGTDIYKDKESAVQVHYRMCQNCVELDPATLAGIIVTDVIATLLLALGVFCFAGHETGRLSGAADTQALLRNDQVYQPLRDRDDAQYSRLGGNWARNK
T2 sequence (Q95LI7 23-181 limits assumed, chain 3 of 3): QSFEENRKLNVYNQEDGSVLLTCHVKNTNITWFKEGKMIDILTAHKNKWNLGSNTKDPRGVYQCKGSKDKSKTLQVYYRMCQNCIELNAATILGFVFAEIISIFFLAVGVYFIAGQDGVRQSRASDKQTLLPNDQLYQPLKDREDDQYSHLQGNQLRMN
Procedure: Centrifuge to remove supernatant, wash the plate twice with 1% DPBS, add 100 μl 1% DPBS to each well for resuspension, and detect the signal intensity by flow cytometry.

B1: bispecific antibody AP163 (bispecific antibody)
chain: QVQLVQSGAEVKKPGSSVKVSCKASGGTFSNYWMHWVRQAPGQGLEWMGATYRGHSDTYYNQKFKGRVTITADKSTSTAYMELSSLRSEDTAVYYCARGAIYDGYDVLDNWGQGTLVTVSSGGGGSGGGGSGGGGSDIQMTQSPSSLSASVGDRVTITCSASQDISNYLNWYQQKPGKAPKLLIYYTSNLHSGVPSRFSGSGSGTDFTLTISSLQPEDFATYYCQQYRKLPWTFGQGTKLEIKGGGGGGSGGGGSGGGGSSSSSKAPPPSEVQLLESGGGLVQPGGSLKLSCAASGFTFNTYAMNWVRQAPGKGLEWVARIRSKYNNYATYYADSVKDRFTISRDDSKNTAYLQMNNLKTEDTAVYYCVRHGNFGNSYVSWFAYWGQGTLVTVSSGGGGSGGGGSGGGGSELVVTQEPSLTVSPGGTVTLTCRSSTGAVTTSNYANWVQQKPGQAPRGLIGGTNKRAPGTPARFSGSLLGGKAALTLSGVQPEDEAEYYCALWYSNLWVFGGGTKLTVLDKTHTCPPCPAPEAAGGPSVFLFPPKPKDQLMISRTPEVTCVVVDVSHEDPEVKFNWYVDGVEVHNAKTKPREEQYASTYRVVSVLTVLHQDWLNGKEYKCKVSNKALPASIEKTISKAKGQPREPQVYTLPPSRDELTKNQVSLTCLVKGFYPSDIAVEWESNGQPENNYKTTPPVLDSDGSFFLYSKLTVDKSRWQQGNVFSCSVLHEALHNHYTQKSLSLSPG
notes: human IgG1 Fc with L234A, L235A, T250Q, N297A, P331S, M428L and K447 deleted (EU); also called anti-BCMA×CD3 bispecific antibody
- EC50 of activation of NFAT-Jurkat reporter cells (luciferase) in the presence of H929 cells [1]: 3.16 ng/mL
- EC50 of cynomolgus monkey T cells killing NCI-H929 tumor cells mediated by AP163 [1]: 0.278 pM
- EC50 of human T cells killing NCI-H929 tumor cells mediated by AP163 [1]: 0.239 pM
- binding result [2]: binds
